Consider 69 sequences from the domain aggregation screens of Martell et al. (2025).
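Also: 20 min heating vs room temperature control held 20 min.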

The data set can be described thus: soluble fraction after stress (log2 fold change); higher = more stays soluble; pooled small domains, quantitative proteomics. The note with it: stress: 75 degC.
As to “HMVDIQTGQKVRIHTSQFAGKIGNITALNVKSAELPNGIRTATASILMQSNENVMLPVSNFDIIE”, the “soluble fraction (log2)” value is -0.0419.

Consider “HMVDIVLDILKIVAEKQPGNQFSQSILMQYQERGGLSKKQLEGLYGKAKRIPEIPQNKLATLEAIILR”, for which the “soluble fraction (log2)” value was -1.84.

As for “HMVDKNDLTAIDGIGPFLEKKLNDVGVFTYADIAGWDAAKIEEITQQISFFEGRIEKDDWVGQAQKLIDDQ”, the “soluble fraction (log2)” value is -0.124.

“HMVDKSYIHNQQVASDTWTVQHNLGKYPAVSVADTGNNEVYGDVRHINENTVELKFSHPFSGVAFF”: the “soluble fraction (log2)” value stood at 0.61.

Regarding “HMVDKTMYDRYAVDDYVRVIDGPLVGTEGRIIELDRETGNVKIEAVFFGRVTTADINFALIEKVD”, the “soluble fraction (log2)” value was -0.717.

For the sequence “HMVDLDIENYELEDILNLFRLQYNFVEADLKRAYRMALKLHPDKSGLDGEYFRFYMKAYKIVENIFNFRNR”, the “soluble fraction (log2)” value is -1.5.

With “HMVDSVIGSVGRVTVDIDNVEALGQVKLGGMEWSARSTSGDPIPAGTEVRVDRVEGVKVFVTPV”, the “soluble fraction (log2)” value is -0.117.

As for “HMVDVEMLTTVSDHIEAKLLQGILENHGIPSYSVDEESGEYMRVYMGYSIFGEKIYVRASDLLAAQGYL”, the “soluble fraction (log2)” value was -2.23.

Regarding “HMVDWTFPVLVKDVVMMGRYGHMGFLRIPGKKDFESVDNALAKVGMVEYAKQQIGELSGGQR”, the “soluble fraction (log2)” value was -0.019.

Consider “HMVDYSMEDSVWNNKKEHVNEWFDANPEHEGRRVIVDGLFAIGDAQPDLRKRHWSSISVVFADLDNSPIG”, for which the “soluble fraction (log2)” value is -0.327.

Regarding “HMVEDPADNQKAADAVIKKISEIGEVTESSENLIKEARASYDALTDNQKELVTNYDVLVQAEAQLENIKD”, the “soluble fraction (log2)” value worked out at 0.282.

For “HMVEEVDYGTFMRMIEEKNIGKVEVRAGEIVFTDKDEKQIYKTGAMEDATLTQRLYESGAEFSKDV”, the “soluble fraction (log2)” value is -0.0507.

As for “HMVEGVSLVEIYVDENSKYNGKLLSEIPKKENTLVIMIQRGEQVIIPHGNIRLESGDMLVVSKTEI”, the “soluble fraction (log2)” value is -2.71.

For “HMVEKNALSEEIEGYVNKYGKDRSSLMPVLQAIQRKHSYINDFAQQEVARLLDIHPVEVFSVISFYSFLH”, the “soluble fraction (log2)” value is -2.21.

Consider “HMVEKRLFPQISDAGKRLDLFLAGALAISRTMVVKIIKDGGVLVNGKAAKASYRLAGDEELLVSYEEP”, for which the “soluble fraction (log2)” value was -3.48.

As to “HMVEMPEVGVKVRIEVESHNGSTNFEGIVLHPASKGHLTLKLINGYNASYLIEEIRNLEIIDSS”, the “soluble fraction (log2)” value is -1.64.

Regarding “HMVENATPEEREALNDIAMEAMGMVKDGKPTSAREFVQSQNLDNDQKILLWSLLDAPTRSALKTAEK”, the “soluble fraction (log2)” value turned out to be 0.373.

Regarding “HMVEPIKAPMPGMVLKILVEPGQQIEKGQGVLILEAMKMENVLKSSAAATVKSIKVSEKSAVEKGAILVEL”, the “soluble fraction (log2)” value was -0.463.

Regarding “HMVEQVEISILPGEYSDTISQKLLDAGLIDDKAAFSKYINDTNVDNLIQPGTFTVPKGASYEEVAKILT”, the “soluble fraction (log2)” value was found to be 0.214.

Consider “HMVERRVRFTVAPGNAGLRLDLFLTAREIGLSRTQVGRAVDEGQIQVNGRPGRAGRKLKTGDVVAIVLPA”, for which the “soluble fraction (log2)” value is -1.13.

For the sequence “HMVESLTDRELQILSLAAKGYTNKAIAVQLGISDRTVQNHLANTFQKLNAESRTEAVMRAVSLGLISA”, the “soluble fraction (log2)” value is -0.542.

For the sequence “HMVETVQVVGAGQDIMPGSRINYSSLHYITVPRSYFHEDMFAKNNLVVGRIARAYVAKGEPLLAASLMPK”, the “soluble fraction (log2)” value was -2.29.

In the case of “HMVEVPYSEFLKELDAGNVKDVYVSNGESQIQFTKKDQKQWNLSYKTGPIPGDDLVKRLQNADVENFT”, the “soluble fraction (log2)” value was found to be 0.109.

On to “HMVEVTTDEITRPGAMVSGSVTFSDGVKAIWLIDEYGRPGLEPETPGYQPSESDLSEFEKHLRALLQ”, for which the “soluble fraction (log2)” value was determined as 0.362.

On to “HMVEVVDAEKLEERLSKVFSAAVLLEIYNENPAHGKEYAYLFTARKNAVEEMIENGQMKRETWEAK”, for which the “soluble fraction (log2)” value was -0.987.

On to “HMVFSKEELLFNSDSLLSLYPNDNKLLETILSEKIDHAVKNNDMSMYKEILVIDPKNPLANYHLLM”, for which the “soluble fraction (log2)” value came to 0.354.

In the case of “HMVFTEEERAEYREKMLDAGFDLLKQYGMTHMSVAKITEAAGIGVSTFYNFFSSKEEYVYEVLQYRRRK”, the “soluble fraction (log2)” value was -1.3.

Take “HMVGIVQKTFEPTGIAAEELMKTLKSDKSLDFGNVQILATPKSSTSRQVVVVSGRANDVDRVMMVLSNLDS”: the “soluble fraction (log2)” value was -0.326.

“HMVGKIVVPHLEGKPAEMARDILARDGFKSVHEEVLPSAEFGAGRVVRTEPHAGTNVAKTDPVTIFVSVGL”: the “soluble fraction (log2)” value is -0.268.

On to “HMVGLTDLQRNVLVQIARGKSRQLISRTLKVTPAEISAALKVAQRRYRVASSTEVIVQALYDKTLSFHEIM”, for which the “soluble fraction (log2)” value is -0.707.

“HMVIIPNILNKYKGLAFRQLEQVGLKIGDTIYEPNIQRDAVLRMQINGRSVQPGDQVMRFSVVDLVIG”: the “soluble fraction (log2)” value was -3.2.

“HMVINKRELNVLSIYSRGSEKRAIILFPTGQTKLVKVGDTLNGGRVAAIGTTEIRYIKGGNNLVLKIPQ”: the “soluble fraction (log2)” value was -2.75.

“HMVINVNEIIRRIKELKTFKTDRQVADFLGVSKATVSNWMARNSIDFPLLINKLDGVDLTWLLTGRGTPE”: the “soluble fraction (log2)” value is -2.15.

Regarding “HMVIPATPTARRAKIAGLLADRSVRSQGELLTLLADAGIEVTQATLSRDLEALGAVKVRDGRGLVYAVPG”, the “soluble fraction (log2)” value is -0.32.

“HMVIQRQIPPLVTRMLDGLEQFIQLDMPFDLDTRLGNIEAVRANMDRSDVTSAEAYRQVLELYSIELQ”: the “soluble fraction (log2)” value was -0.559.

Take “HMVISLREINLIGVYGRPNARRALVRLSNGRYVRVEVGSDLDGGKVTAIGDEALNFVKRGRTYAIQLPA”: the “soluble fraction (log2)” value was -1.11.

Regarding “HMVITPESVKEQVLAIISKSPAQGFNYKQISKRLNINDPSERKMVSDILRELSESGTIEEINKGKYRAKV”, the “soluble fraction (log2)” value was 0.186.

As for “HMVKDYIQVTVNKEPVILKGKKDYIFIDIFNYIEFDLTIPKGSLYLLLNGKNAGYHDKLLDGDVIELGW”, the “soluble fraction (log2)” value is -2.17.

For “HMVKLDDLTGQDKASAEAAISNLGLKYSEQQEYSDEIEEGKVTRTDPGAGSTSLKAGDTVTVYISRGPE”, the “soluble fraction (log2)” value was 0.905.

Take “HMVKLSATVKELLDFVIAKKTVTSSNVSKHFDISAQNASGRLKKLHATGLVLGQKEVAESGGLEFVYRS”: the “soluble fraction (log2)” value was -0.132.

For the sequence “HMVKLSDGIVEHIKSLIMAGRLKPGDKLPPEREFAATLGVSRTALREAVRTLSLMGLLDARQGEGTFVSG”, the “soluble fraction (log2)” value is -0.135.

For “HMVKPQANTIYKEYIKYRANLQNKNEFLSFSEYAKQKHNLEQMSEIMVDANLKEEMLETLKEMS”, the “soluble fraction (log2)” value is -0.0266.

For “HMVKSDLVGHRFILVEDVTPKLTPKYHYSGINWKLITTDNLVAGTRVEVIQVDVGKFHIKAIK”, the “soluble fraction (log2)” value is -1.85.

In the case of “HMVKSIDEIYNEAVKSLANEDYDAAKKLFNYLINNFSDPDKFPLSLFWLAEIEFSSSNFDASKNYYMQ”, the “soluble fraction (log2)” value was found to be 0.0365.

As for “HMVKSSVTEVISMINALPVTVKPEDKADIISARMAYDTLTEDEKALVTNYEILTAAETRFNELIATT”, the “soluble fraction (log2)” value amounted to 0.275.

Regarding “HMVKTIINGEEKDFDAQDFQTFGDFLKKVIPEGQILKSLKINSKDVPIAFIDELKSATVDENITIEMELA”, the “soluble fraction (log2)” value stood at 0.682.

For “HMVLAEPLSERELDILRLLAAGDSNKEIAAVLYITEGTVKNHVTNILGKLDARDRTQAALRARELGL”, the “soluble fraction (log2)” value was -1.21.

As to “HMVLGDQTFQSASAPKVFFGGDAAYGPKNIITAVAHGHDAAVSIDRFLHGEDVSKRPGPQVNLVS”, the “soluble fraction (log2)” value stood at 0.287.

As to “HMVLRPDDVEDSLWREWVSHRKAKRAAVTEGVLKTFRQEATKASFTLADAMRKSIDRGWTGFEAEWVARET”, the “soluble fraction (log2)” value was -0.299.

Consider “HMVLSPAQVRRALMVSGLFTEARVARQLGVPMDLKQILRIILRNTPPQSAMARELESAIDEIESRNAMRD”, for which the “soluble fraction (log2)” value is -1.7.

For “HMVLSTRERMSNILATLKGGHFVNFSDLFTPEEGRLGVVVTFLAMLELIKESLLDIVQHEVLGPIHVKARV”, the “soluble fraction (log2)” value stood at 0.00479.

Regarding “HMVLTGTIKKYNNERGFGFISTSNFGDVFFHIKDFQKGEQPIPGREVYFEVVKKENKKRAIHVYYSD”, the “soluble fraction (log2)” value was -1.95.

For “HMVLVSNYGEVVRKARERKGLDHGSLAMKISEKKSIITSVESGNMKPNEKLIKKLENFLNINLM”, the “soluble fraction (log2)” value is -1.69.

For “HMVMIPDLVGETIEDAKDILEGLGFEVEVRSEFPESDWGRPFARVTSLSPSAGQEVAKGTLVIIRSF”, the “soluble fraction (log2)” value is -1.05.

In the case of “HMVMLIVMNHTASQADIDKVIEVVSGMGFTAAPIPGGERTAIGVLGNKGYVDDSTIRDLPGVQQAIHVSKP”, the “soluble fraction (log2)” value is -1.21.

As for “HMVMSVGENIAYFRKKLGLTQEMLSERIGVTAQAVSKWENGVTNPDISLLPRISEALGIGIGDLFD”, the “soluble fraction (log2)” value is -1.94.

“HMVNAVKFAIEKMPYKYSSLLTLKYVMGYSGKEIAEITGLSETNVRQQLLKGRKLLESMLEE”: the “soluble fraction (log2)” value is -2.9.

“HMVNGTPADPYDVLGVESSASPEELRAAWQTLVRQNHPDQLMARGVPLEAVKLAEARLVAINQAWDDLTK”: the “soluble fraction (log2)” value was -0.0568.

As for “HMVNHVGITVSNLERSIQFYEALTGKKIANQDTIGGKRMAQTQGLADTLIKYANLHLDNLNIDLLEYVE”, the “soluble fraction (log2)” value is -0.92.

In the case of “HMVNIAVMTVSDTRTEADDKSGSLLVSKIEGDGHVLADRAIITDDVPRIIAKLKEWIESPQVDVVVT”, the “soluble fraction (log2)” value was -0.0813.

On to “HMVNINEVEVSRDLAHAKVFVTFVGDRTDEINTQALKVLNAAQGFLRSRIASNNHMRTTPRIHF”, for which the “soluble fraction (log2)” value was -0.567.

Consider “HMVNIPEIAKKFGKSTSEVFEQIQIGEKHEMEHTNDPKKARKIALDHLSDDMDYYKKLKKLG”, for which the “soluble fraction (log2)” value was 0.212.

For “HMVNLKQVELREHHPWVGHKIKELDISRHTLIVMIRRGDNAIVPNGDTLIKSGDIVFVFSKR”, the “soluble fraction (log2)” value was -2.76.

As for “HMVNPHPVYRSWGLLYVEARDGDSLESIAKEFGFSVKKLAKYNEVPKDYPLEAGDIVYLEKKKK”, the “soluble fraction (log2)” value was -1.63.

Turning to “HMVNPIDFYLLFRTELQRLAEHPITVDRLTEVTGLNKLQVLDWLKRAEQDGLVKKLNRPTRYQLN”, the “soluble fraction (log2)” value came out at 0.233.

Take “HMVPAMGSLTLIKGGVNLRNAPGGLTIAQLDRGLVLSYTKFVQKDGYTWYLVNSPKGTGYVRSDVVQLGS”: the “soluble fraction (log2)” value was -2.58.

Take “HMVPDGFDQLTEREYQVAMAVGKGLNNKEIASQLGLGERTVKAHLTTTFEKLHVRDRVQLALIVNRL”: the “soluble fraction (log2)” value was -0.683.

Turning to “HMVPDVVGKDYALAQAELEGANLVVAKGSSRYDDTLPAGVVLATDPKVGTVVKPGAKVTVILSK”, the “soluble fraction (log2)” value is 0.217.

In the case of “HMVPLSMLTEGQIFRGQVLDITSQGIKIQLNPEQILFARLGEQVELNIGQQMAFQVRENKGDQLIIHPMQN”, the “soluble fraction (log2)” value is -0.353.
